The values that follow come from patent US20130142799A1 (Amgen, published 2013).

The target in assay [1] is T1, human angiopoietin-1 (human, UniProt Q15389 20-498).
T1 construct: also called hAng-1; Human Ang1
T1 sequence (looked up): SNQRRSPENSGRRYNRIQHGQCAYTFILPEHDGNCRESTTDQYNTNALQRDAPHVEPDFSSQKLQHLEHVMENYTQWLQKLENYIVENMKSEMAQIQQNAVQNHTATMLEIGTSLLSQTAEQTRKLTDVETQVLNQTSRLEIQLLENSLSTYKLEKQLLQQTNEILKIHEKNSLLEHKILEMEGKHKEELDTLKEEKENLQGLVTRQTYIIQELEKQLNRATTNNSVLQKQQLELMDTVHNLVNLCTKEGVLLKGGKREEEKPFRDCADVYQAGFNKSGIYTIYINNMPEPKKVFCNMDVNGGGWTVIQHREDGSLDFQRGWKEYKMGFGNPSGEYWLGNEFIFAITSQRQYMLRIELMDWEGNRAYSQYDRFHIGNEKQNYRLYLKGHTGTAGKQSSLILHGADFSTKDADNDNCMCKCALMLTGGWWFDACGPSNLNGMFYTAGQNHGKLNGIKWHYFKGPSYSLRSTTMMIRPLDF
The experiment in a line: Affinity ELISA on plate-bound hAng-1. Background: In an ELISA, binding on a coated surface is turned into a signal by an enzyme label.

In assay [2] the target is T2, human angiopoietin-2 (human, UniProt O15123 19-496, limits assumed).
T2 construct: also called hAng-2; huAng-2
T2 sequence (looked up): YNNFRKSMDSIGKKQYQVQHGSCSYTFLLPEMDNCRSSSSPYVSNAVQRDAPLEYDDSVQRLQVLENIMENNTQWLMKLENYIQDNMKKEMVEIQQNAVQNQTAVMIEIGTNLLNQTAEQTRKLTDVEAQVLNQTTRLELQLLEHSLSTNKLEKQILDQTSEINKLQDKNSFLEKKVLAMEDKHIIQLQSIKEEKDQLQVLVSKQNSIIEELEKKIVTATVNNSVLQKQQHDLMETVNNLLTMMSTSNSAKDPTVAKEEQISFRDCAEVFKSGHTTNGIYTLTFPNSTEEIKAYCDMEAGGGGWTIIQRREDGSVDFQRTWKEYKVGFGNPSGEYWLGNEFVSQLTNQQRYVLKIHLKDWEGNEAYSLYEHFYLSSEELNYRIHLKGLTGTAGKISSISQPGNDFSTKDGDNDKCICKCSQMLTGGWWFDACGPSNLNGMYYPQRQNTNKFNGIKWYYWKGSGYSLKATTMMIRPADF
The assay is described as follows: Affinity ELISA on plate-bound hAng-2.

Assay [3] deals with T3, murine Ang-2, His-tagged (mouse, UniProt O35608 19-496).
T3 construct: also called mAng-2; mAng-2-His
T3 sequence (looked up): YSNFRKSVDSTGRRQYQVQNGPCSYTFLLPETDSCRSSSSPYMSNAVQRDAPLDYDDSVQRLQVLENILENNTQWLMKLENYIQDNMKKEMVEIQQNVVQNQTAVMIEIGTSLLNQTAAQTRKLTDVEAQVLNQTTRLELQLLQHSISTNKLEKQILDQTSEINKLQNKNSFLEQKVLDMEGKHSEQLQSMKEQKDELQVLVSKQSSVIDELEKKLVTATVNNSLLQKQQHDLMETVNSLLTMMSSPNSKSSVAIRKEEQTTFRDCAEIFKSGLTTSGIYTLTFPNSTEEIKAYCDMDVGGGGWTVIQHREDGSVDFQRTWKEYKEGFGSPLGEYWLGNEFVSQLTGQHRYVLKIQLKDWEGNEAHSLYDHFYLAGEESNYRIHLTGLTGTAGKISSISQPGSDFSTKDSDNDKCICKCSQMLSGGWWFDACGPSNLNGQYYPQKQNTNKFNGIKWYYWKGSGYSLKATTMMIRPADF
The experiment in a line: Affinity ELISA on plate-bound mAng-2.

Assay [4] deals with T3, murine Ang-2, His-tagged. The assay is described as follows: BIAcore: antibody captured on Protein G, mAng-2 injected. Here is the method: (§1) Binding assays were carried out by first attaching about 100 Ru of each candidate anti-Ang-2 antibody to the immobilized Protein G, after which various concentrations (0-100 nM) of huAng-2 or mAng-2 were then injected over the bound antibody surface at a flow rate of about 50 ul/min for about 3 minutes. Antibody binding kinetics including kₐ (association rate constant), kd (dissociation rate constant) and KD (dissociation equilibrium constant) were determined using the BIA evaluation 3.1 computer program (BIAcore, Inc.).

Assay [5] concerns the target T2, human angiopoietin-2. The experiment in a line: BIAcore: antibody captured on Protein G, huAng-2 injected. The method, then: as §1
(In general: In SPR one partner is held on a chip, and binding of the other changes the refractive index at the surface.)

Assay [6] addresses T1, human angiopoietin-1. The assay is described as follows: Neutralization ELISA: antibody titrated against 1 nM Tie2-Fc on plate-bound hAng-1.
The target in assay [7] is T2, human angiopoietin-2. The assay is described as follows: Neutralization ELISA: antibody titrated against 1 nM Tie2-Fc on plate-bound hAng-2. The method, then: Microtiter plates to which human Ang-2 polypeptide was bound were prepared as described for the Affinity ELISA. […] Next, about 100 microliters per well of goat anti-mouse-IgG-HRP (Pierce Chemical CO., catalog #31432) was added at a dilution of 1:10,000 in PBS containing about 1 percent BSA. Plates were incubated at room temperature for about 1 hour, after which they were washed five times with PBS containing about 0.1 percent Tween-20. About 100 microliters per well of TMB substrate (described above) was then added and color was allowed to develop. Absorbance was then read in a spectrophotomer at 370 nm.
Seventeen of the antibodies and a negative control IgG1 (referred to as RDB1) were tested using affinity and neutralization ELISA (as described in Example 3 above) as well as the BIAcore neutralization assay to determine their affinity, neutralization, and specificity capabilities.

Assay [8] deals with T3, murine Ang-2, His-tagged. The assay is described as follows: Neutralization ELISA: antibody titrated against 1 nM Tie2-Fc on plate-bound mAng-2.
A further assay concerns the target T4, Tie2-Fc (human, UniProt Q02763 23-748).
T4 construct: extracellular domain; Bought reagent; Allophycocyanin-conjugated in the HTRF assay; also called hTie2-Fc; human Tie2-Fc; not shown: Fc portion of the bought Tie2-Fc
The assay is described as follows: ELISA at one concentration on conditioned medium with N-terminal hAng-2 (aa 1-254, 6xHis); O.D. 370; control pCDNA3 vector medium. Here is the method: The binding epitope of anti-Ang-2 antibodies and peptibodies was determined by their ability to bind the three versions of human hAng-2 by ELISA according to the following protocol: a high-binding 96-well assay plate was coated with 100 μl of conditioned media per well, and incubated at 37° C. for 1 hour. Conditioned media was aspirated, and the plate was blocked with 200 μl per well of 5% BSA in PBS at room temperature for 1 hour. The blocking solution was then aspirated. […] The wells were washed 4 times with 200 μl of 0.1% Tween in PBS. 100 μl per well of HRP-conjugated goat anti-human IgG or goat anti-mouse IgG were added, and incubated at room temperature for 45 minutes. The wells were then washed with 200 μl of 0.1% Tween in PBS 4 times. 100 μl per well of TMB substrate was then added. O.D. was read at 370 nm.

Assay [9] concerns the target T2, human angiopoietin-2. The assay is described as follows: HTRF: antibody titrated against biotinylated human Ang2 and APC-conjugated human Tie2-Fc. Here is the method:
For HTRF assays, a ninety-six-well microtiter “mix plate” was prepared by adding 50 ul of HTRF buffer (50 mM Tris-HCl, pH 7.5, 100 mM NaCl, 0.05% Tween 20, 0.1% BSA) containing 0.8 nM Europium-conjugated streptavidin (PERKIN ELMER LIFE SCIENCES INC., catalog #AD0062) and 4.0 nM biotinylated human angiopoietin 1 (R & D Systems) or angiopoietin 2 (Amgen Inc.) to each well. In a separate microtiter plate, angiopoietin-neutralizing agents were titrated from 400 nM to […] in HTRF buffer, and 50 ul of each serially-diluted angiopoietin-neutralizing agent were then transferred and mixed with the “mix plate” containing the streptavidin-Europium/angiopoietin. The plate was then incubated on a shaker at room temperature for one hour. […] The final “assay plate” was incubated at room temperature with shaking for two hours. […] Assay plates were analyzed using a Rubystar plate reader (BMG Labtechnologies, Offenberg, Germany). […] IC50 values were then calculated by analyzing percentage inhibition using the GRAFIT 5.0 program (Erithacus Software Ltd.).
(§2) All results were expressed as IC50 curves calculated from samples that were tested in duplicate using the formula below.

Assay [10] concerns the target T2, human angiopoietin-2. The experiment in a line: ELISA: antibody titrated against 1 nM hTie2-Fc on plate-bound human Ang2 (293T conditioned media). Here is the method:
(§3) For the ELISA assay, ninety-six-well microtiter plates were coated with recombinant angiopoietins in 293T cell conditioned media (DMEM/50 ug/ml BSA) at 37° C. for 1 hour. […] Plates were washed with PBS/0.1% Tween-20 and then blocked for 2 hours at room temperature with PBS/5% BSA. […] Goat anti-mouse-IgG-HRP (Pierce, catalog #31432) was added at a dilution of 1:10,000 in PBS/1% BSA (1 hour incubated at room temperature), after which plates were washed several times with PBS/0.1% Tween-20.
as §2

The target of assay [11] is T5, Mouse Ang2 (recombinant, 293T cell conditioned media) (mouse, UniProt O35608 19-496).
T5 construct: construct not described
T5 sequence (looked up): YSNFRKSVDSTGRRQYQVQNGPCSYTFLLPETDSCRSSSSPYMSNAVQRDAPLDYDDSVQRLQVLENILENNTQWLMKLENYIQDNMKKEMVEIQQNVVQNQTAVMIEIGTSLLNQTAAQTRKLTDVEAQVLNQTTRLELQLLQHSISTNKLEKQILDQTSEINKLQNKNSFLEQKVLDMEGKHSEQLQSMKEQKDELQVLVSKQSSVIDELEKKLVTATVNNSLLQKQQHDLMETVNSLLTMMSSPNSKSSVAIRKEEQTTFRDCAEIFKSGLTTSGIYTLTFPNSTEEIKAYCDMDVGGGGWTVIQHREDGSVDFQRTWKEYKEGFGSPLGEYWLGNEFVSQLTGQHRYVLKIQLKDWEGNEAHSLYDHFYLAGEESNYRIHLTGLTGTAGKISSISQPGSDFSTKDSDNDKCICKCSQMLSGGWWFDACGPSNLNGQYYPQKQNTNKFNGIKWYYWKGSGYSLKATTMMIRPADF
The experiment in a line: ELISA: antibody titrated against 1 nM hTie2-Fc on plate-bound mouse Ang2 (293T conditioned media). The method, then: as §3, §2

T4 sequence (Q02763 23-748): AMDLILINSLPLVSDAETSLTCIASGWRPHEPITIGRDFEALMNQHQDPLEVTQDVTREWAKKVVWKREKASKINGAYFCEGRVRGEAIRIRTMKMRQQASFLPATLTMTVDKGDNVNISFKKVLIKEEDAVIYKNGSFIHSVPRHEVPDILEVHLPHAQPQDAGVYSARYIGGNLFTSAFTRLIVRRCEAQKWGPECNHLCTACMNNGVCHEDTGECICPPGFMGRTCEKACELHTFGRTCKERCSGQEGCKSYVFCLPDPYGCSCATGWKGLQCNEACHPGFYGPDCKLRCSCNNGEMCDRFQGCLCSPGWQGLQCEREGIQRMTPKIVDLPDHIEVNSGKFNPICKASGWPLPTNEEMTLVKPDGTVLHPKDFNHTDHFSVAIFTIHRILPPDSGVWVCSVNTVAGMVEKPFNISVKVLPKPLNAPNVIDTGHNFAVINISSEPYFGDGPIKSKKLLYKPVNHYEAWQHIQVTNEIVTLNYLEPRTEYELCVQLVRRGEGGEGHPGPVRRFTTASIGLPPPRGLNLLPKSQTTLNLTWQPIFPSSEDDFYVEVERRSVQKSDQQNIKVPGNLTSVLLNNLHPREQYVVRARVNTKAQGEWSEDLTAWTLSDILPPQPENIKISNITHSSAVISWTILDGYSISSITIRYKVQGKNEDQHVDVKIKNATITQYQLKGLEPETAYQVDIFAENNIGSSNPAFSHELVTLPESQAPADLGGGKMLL

B1: Ab 545 (antibody, human IgG1, lambda, V domains shown)
VH: QVQLQESGGGVVQPGRSLRLSCAASGFTFSSYGMHWVRQAPGKGLEWVAVISYDGSNKYYADSVKGRFTISRDNSKNTLYLQMNSLRAEDTAVYYCAKGPVDFDYGDYAIDYWGQGTLVTVSS
VL: QSVLTQPSSVSGAPGQRVTISCTGQSSNIGAGYDVHWYQQFPGRAPKLLIYGNSNRPSGVPDRFSGSKSGTSASLAITGLQPEDEADYYCQSYDSRLSGSVFGGGTKLTVLG
notes: Fully human IgG1 lambda; also called clone 545
Usually EC50 stands for the concentration needed to bring the measured effect to its halfway point. A word on the Kd: it is the free concentration of one partner at which half of the binding sites on the other are occupied at equilibrium, for simple one-to-one binding. Read a high Kd as a looser complex. For orientation: koff means the first-order rate constant of dissociation. Read a high koff as a short-lived complex. The term kon denotes a measure of how fast the partners come together. The low end stands for slower complex formation, the high end for faster complex formation. By IC50 is commonly meant the concentration at which inhibition is half-maximal. Take B1: the EC50 in the assay with human angiopoietin-1 [1] came out at 2 nM; with human angiopoietin-2 [2], 0.02 nM; with murine Ang-2, His-tagged [3], 0.05 nM. Besides, the Kd with murine Ang-2, His-tagged [4] was 0.9 nM; with human angiopoietin-2 [5] it was 1.2 nM. Besides, the dissociation rate constant (koff) was 0.00053 s⁻¹ in the assay with murine Ang-2, His-tagged [4] and 0.00039 s⁻¹ with human angiopoietin-2 [5]. The kon came to 590000 M⁻¹ s⁻¹ in the assay with murine Ang-2, His-tagged [4] and 330000 M⁻¹ s⁻¹ with human angiopoietin-2 [5]. The IC50 was found to be 8.31 nM in the assay with human angiopoietin-1 [6]; 1.04 nM in the assay with human angiopoietin-2 [7]; 1.3 nM in the assay with murine Ang-2, His-tagged [8].

B2: N-term hAng2 (aa 1-254) (ligand)
chain: YNNFRKSMDSIGKKQYQVQHGSCSYTFLLPEMDNCRSSSSPYVSNAVQRDAPLEYDDSVQRLQVLENIMENNTQWLMKLENYIQDNMKKEMVEIQQNAVQNQTAVMIEIGTNLLNQTAEQTRKLTDVEAQVLNQTTRLELQLLEHSLSTNKLEKQILDQTSEINKLQDKNSFLEKKVLAMEDKHIIQLQSIKEEKDQLQVLVSKQNSIIEELEKKIVTATVNNSVLQKQQHDLMETHHHHHH
notes: also called N-terminal human Ang-2
On to B2, for which the binding result with Tie2-Fc was “no binding (tested: 1 µg/ml)”.

B3: Ab536 LQT (antibody, human IgG1, kappa, V domains shown)
VH: EVQLVQSGGGVVQPGRSLRLSCAASGFTFSSYGMHWVRQAPGKGLEWVSYISSSGSTIYYADSVKGRFTISRDNAKNSLYLQMNSLRAEDTAVYYCARDLLDYDILTGYGYWGQGTLVTVSS
VL: not shown
notes: Fully human IgG1 kappa; variant separated from the clone 536 mixture; also called 536 kappa LQT variant
With B3, the 50% inhibitory concentration (IC50) turned out to be 0.072 nM with human angiopoietin-2 [9], 0.35 nM with human angiopoietin-2 [10] and 0.1 nM in assay [11].

B4: Ab536 THW (antibody, human IgG1, kappa, V domains shown)
VH: EVQLVQSGGGVVQPGRSLRLSCAASGFTFSSYGMHWVRQAPGKGLEWVSYISSSGSTIYYADSVKGRFTISRDNAKNSLYLQMNSLRAEDTAVYYCARDLLDYDILTGYGYWGQGTLVTVSS
VL: not shown
notes: Fully human IgG1 kappa; variant separated from the clone 536 mixture; also called 536 kappa THW variant
With B4, the figures for the IC50 (with human angiopoietin-2 [9]; with human angiopoietin-2 [10]; in [11]) were 0.071 nM, 0.31 nM and 0.088 nM, respectively.
